According to article PMC7307906, “Macrocyclic Modalities Combining Peptide Epitopes and Natural Product Fragments” (Journal of the American Chemical Society, 2020):
Bridges are numbered along the chain shown (N, C = ends). Where no end group is shown, it is not given here. [ ]: non-standard residue; d: D form. pyrrolidinyl‑spirobarbiturate (VII) = not defined here; N‑phenyl fused di‑pyrrolidine (II) = not defined here; N‑methyl fused di‑pyrrolidine (I) = not defined here; ortho ether aromatic unit (VIII) = not defined here; phenylmethanamine linker (IX) = not defined here; NP‑inspired fragment III = not defined here; pyrrolidine (IV) = not defined here; NMeF = CN[C@@H](Cc1ccccc1)C(=O)O; NMeL = CN[C@@H](CC(C)C)C(=O)O; NMeV = CN[C@H](C(=O)O)C(C)C

T1: Recombinant human SPSB2 (Homo sapiens, UniProt Q99619)
T1 construct: purchased Abcam ab134592
T1 sequence (Q99619 1-263): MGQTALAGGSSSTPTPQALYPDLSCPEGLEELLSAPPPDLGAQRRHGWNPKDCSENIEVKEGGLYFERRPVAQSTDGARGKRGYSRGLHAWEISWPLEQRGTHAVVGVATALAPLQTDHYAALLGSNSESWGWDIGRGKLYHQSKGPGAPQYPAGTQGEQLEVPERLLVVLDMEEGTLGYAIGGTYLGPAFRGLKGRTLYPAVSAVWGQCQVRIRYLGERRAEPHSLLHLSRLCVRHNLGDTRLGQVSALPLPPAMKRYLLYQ

T2: SPSB2 (Homo sapiens, UniProt Q99619)
T2 chain: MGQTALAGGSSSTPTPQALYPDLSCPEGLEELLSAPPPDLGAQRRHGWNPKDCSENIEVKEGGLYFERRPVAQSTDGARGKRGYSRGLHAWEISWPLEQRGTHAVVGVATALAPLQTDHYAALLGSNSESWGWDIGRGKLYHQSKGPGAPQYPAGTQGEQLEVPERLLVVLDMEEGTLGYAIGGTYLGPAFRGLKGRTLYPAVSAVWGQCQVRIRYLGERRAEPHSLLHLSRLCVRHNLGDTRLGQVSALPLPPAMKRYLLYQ

B1: cyclic peptidomimetic 26 (peptide)
chain: DINNN
modifications: bridge (positions not given here) via ortho ether aromatic unit (VIII); reading uncertain; also: cyclized via ortho ether aromatic unit (VIII), attachment points not given here
B2: PepNat D3-major (peptide)
chain: [NMeF]DINNNKG-NH2
modifications: bridge (positions not given here) via NP‑inspired fragment III; reading uncertain; also: macrocycle via NP-inspired fragment III
B3: PepNat D12-major (peptide)
chain: [NMeL]DINNNKG-NH2
modifications: bridge (positions not given here) via N‑methyl fused di‑pyrrolidine (I); reading uncertain; also: macrocycle via N-methyl fused di-pyrrolidine (I)
B4: PepNat D4-major (peptide)
chain: [NMeF]DINNNKG-NH2
modifications: bridge (positions not given here) via pyrrolidine (IV); reading uncertain; also: macrocycle via pyrrolidine (IV)
B5: PepNat D7-major (peptide)
chain: [NMeF]DINNNKG-NH2
modifications: bridge (positions not given here) via pyrrolidinyl‑spirobarbiturate (VII); reading uncertain; also: macrocycle via pyrrolidinyl-spirobarbiturate (VII)
B6: macrocycle 27 (peptide)
chain: [NMeF]DINNNK
modifications: linker (positions not given here) via phenylmethanamine linker (IX); reading uncertain; also: cyclized via phenylmethanamine linker (IX), attachment points not given here
B7: PepNat D13-major (peptide)
chain: [NMeV]DINNNKG-NH2
modifications: bridge (positions not given here) via N‑methyl fused di‑pyrrolidine (I); reading uncertain; also: macrocycle via N-methyl fused di-pyrrolidine (I)
B8: PepNat D2-major (peptide)
chain: [NMeF]DINNNKG-NH2
modifications: bridge (positions not given here) via N‑phenyl fused di‑pyrrolidine (II); reading uncertain; also: macrocycle via N-phenyl fused di-pyrrolidine (II)
B9: PepNat D13-minor (peptide)
chain: [NMeV]DINNNKG-NH2
modifications: bridge (positions not given here) via N‑methyl fused di‑pyrrolidine (I); reading uncertain; also: macrocycle via N-methyl fused di-pyrrolidine (I), minor diastereomer

Target: T1, Recombinant human SPSB2
Experiment: Surface plasmon resonance (SPR) binding to immobilized hSPSB2
Details: SPR KD, hSPSB2, minor versus major diastereomer
Protocol: Example sensorgrams for selected PepNats D1−D4, D7, D8, D10, D12 and D18 interacting with immobilized hSPSB2 using SPR (red). Each PepNat was injected at 0.020 µM, 0.078 µM, 0.313 µM, 1.25 µM and 5 µM concentration in quick succession followed by a longer dissociation time. A binding kinetic model was fitted to each experimental trace (black). All experiments were conducted in triplicates. […]
to the elution profile of the crude product . The relevant fractions containing the desired product were collected, analyzed by RP-HPLC-MS and accordingly pooled and lyophilized.
HRMS were obtained on a Thermo Scientific LTQ Fleet Orbitrap mass spectrometer coupled to an Accela HPLC-System (HPLC column: Hypersyl GOLD, 50 mm x 1 mm, particle size 1.9 μm) equipped with an electron spray ionization source (ESI). The mass detection was recorded in the range of […]
2) B) Biochemical Assays Materials and Methods
Surface Plasmon Resonance (SPR)
All SPR experiments were conducted on a Biacore T200, S200 or 8K instrument (GE Healthcare) at 20 °C using HBS-P+ as running buffer (GE Healthcare). A CM5 sensor chip (GE Healthcare) was conditioned three times at 60 s using 50 mM NaOH, 1 M NaCl prior to standard NHS/EDC activation (e.g. amine coupling in the Biacore instruction manual) of the sensor surface for 420 s.
Recombinant human SPSB2 (product ID: ab134592, Abcam, Cambridge, UK) was diluted to 200 nM using 10 mM Sodium acetate pH 5. 5 and injected over the activated surface for 300 s. This surface and a surface subjected to only NHS/EDC activation were deactivated using 100 mM Tris -HCl, pH 8.0. The empty surface was used as a reference surface.
All PepNat and peptide reference interac tion experiments were conducted by diluting 10 mM DMSO stocks of PepNats and peptide references using digital dispensing (Tecan) to 10 µM, 2.5 µM, 625 nM, 156 nM and 40 nM or 1 µM, 250 nM, 63 nM, 16 nM and 4 nM. All concentrations were serially injected ov er both the SPSB2 containing - and empty surfaces using single -cycle kinetics (GE Healthcare). The resulting sensorgrams were reference - and blank subtracted prior to fitting of the data using a binding kinetic model (Biacore evaluation software).
DNA constructs, cell culturing, transfections and generation of stable cell lines DNA constructs and cell lines were employed as previously described by Durek et al.7 “cDNAs encoding human MC1 (Genbank accession number NM_002386), MC3 (NM_019888), and MC4 (NM_005912) and MC5 (NM_005913) were cloned into the pcDNA4/TO vector (ThermoFisher). In the constructs, a consensus Kozak sequence (GCCACC) was incorporated immediately before the start ATG. DNA was amplified, isolated and sequenced using standard techniques.
T-Rex™-293 cells (ThermoFisher) were cultured in DMEM medium, supplemented with 10% foetal bovine serum and 5 µg/ml blasticidin at 37°C in a humidified atmosphere with 10% CO2.
Lipofectamine 2000 (ThermoFisher) was used for transfections according to the manufacturer’s recommendations. Resistant polyclonal populations were generated by selection with Zeocin (0.3 mg/ml, ThermoFisher) for about two weeks after transfection. Individual clones were iso lated using flow cytometry, subsequently expanded, tested for responsiveness to [Nle 4, DPhe7]-α-Melanocyte Stimulating Hormone (NDP-α-MSH) and cryopreserved.” To induce receptor

First: CC[C@H](C)[C@@H]1NC(=O)[C@H](CC(=O)O)NC(=O)[C@H](C(C)C)N(C)C(=O)[C@H]2N[C@@H](c3ccc(cc3)C(=O)NCCCC[C@@H](C(=O)NCC(N)=O)NC(=O)[C@H](CC(N)=O)NC(=O)[C@H](CC(N)=O)NC(=O)[C@H](CC(N)=O)NC1=O)[C@H]1C(=O)N(C)C(=O)[C@H]12 [D13-minor, [I-VDINNNK ]G]
Second: CC[C@H](C)[C@@H]1NC(=O)[C@H](CC(=O)O)NC(=O)[C@H](C(C)C)N(C)C(=O)[C@H]2N[C@@H](c3ccc(cc3)C(=O)NCCCC[C@@H](C(=O)NCC(N)=O)NC(=O)[C@H](CC(N)=O)NC(=O)[C@H](CC(N)=O)NC(=O)[C@H](CC(N)=O)NC1=O)[C@H]1C(=O)N(c3ccccc3)C(=O)[C@H]12 [D18-minor, [II-VDINNNK ]G]
The “fold loss of binding for the minor diastereomer” value of the first is lower: 5 fold for the first, 63 fold for the second.

Same assay, conditions: SPR, hSPSB2, mean ± SEM of three independent experiments

`CC[C@H](C)[C@@H]1NC(=O)[C@H](CC(=O)O)NC(=O)[C@H](Cc2ccccc2)N(C)C(=O)[C@@H]2N[C@H](c3ccc(cc3)C(=O)NC[C@@H](C(=O)NCC(N)=O)NC(=O)[C@H](CC(N)=O)NC(=O)[C@H](CC(N)=O)NC(=O)[C@H](CC(N)=O)NC1=O)[C@@H]1C(=O)N(C)C(=O)[C@@H]12` [D10-major, [I-FDINNNDap ]G] and `CC[C@H](C)[C@@H]1NC(=O)[C@H](CC(=O)O)NC(=O)[C@H](Cc2ccccc2)N(C)C(=O)[C@@H]2N[C@H](c3ccc(cc3)C(=O)NCC[C@@H](C(=O)NCC(N)=O)NC(=O)[C@H](CC(N)=O)NC(=O)[C@H](CC(N)=O)NC(=O)[C@H](CC(N)=O)NC1=O)[C@@H]1C(=O)N(C)C(=O)[C@@H]12` [D9-major, [I-FDINNNDab ]G] are within error of each other in Kd: 72 ± 16 nM for the first, 66 ± 8 nM for the second.

Going from `CC[C@H](C)[C@@H]1NC(=O)[C@H](CC(=O)O)NC(=O)[C@H](Cc2ccccc2)N(C)C(=O)[C@@H]2N[C@H](c3ccc(cc3)C(=O)NCCC[C@@H](C(=O)NCC(N)=O)NC(=O)[C@H](CC(N)=O)NC(=O)[C@H](CC(N)=O)NC(=O)[C@H](CC(N)=O)NC1=O)[C@@H]1C(=O)N(C)C(=O)[C@@H]12` [D8-major, [I-FDINNNOrn ]G] to `CC[C@H](C)[C@@H]1NC(=O)[C@H](CC(=O)O)NC(=O)[C@@H](Cc2ccccc2)N(C)C(=O)[C@@H]2N[C@H](c3ccc(cc3)C(=O)NCCCC[C@@H](C(=O)NCC(N)=O)NC(=O)[C@H](CC(N)=O)NC(=O)[C@H](CC(N)=O)NC(=O)[C@H](CC(N)=O)NC1=O)[C@@H]1C(=O)N(C)C(=O)[C@@H]12` [D15-major, [I-fDINNNK ]G], the Kd rises from 282 ± 93 nM to > 10000 nM.

`CC[C@H](C)[C@@H]1NC(=O)[C@H](CC(=O)O)NC(=O)[C@H](Cc2ccccc2)N(C)C(=O)[C@@H]2N[C@H](c3ccc(cc3)C(=O)NC[C@@H](C(=O)NCC(N)=O)NC(=O)[C@H](CC(N)=O)NC(=O)[C@H](CC(N)=O)NC(=O)[C@H](CC(N)=O)NC1=O)[C@@H]1C(=O)N(c3ccccc3)C(=O)[C@@H]12` [D17-major, [II-FDINNNDap ]G] gave a Kd of 1080 ± 76 nM.

Same assay, conditions: ratio of SPR KD, hSPSB2, versus 24

In the case of `CC[C@H](C)[C@@H]1NC(=O)[C@H](CC(=O)O)NC(=O)[C@H](C(C)C)N(C)C(=O)[C@@H]2N[C@H](c3ccc(cc3)C(=O)NCCCC[C@@H](C(=O)NCC(N)=O)NC(=O)[C@H](CC(N)=O)NC(=O)[C@H](CC(N)=O)NC(=O)[C@H](CC(N)=O)NC1=O)[C@@H]1C(=O)N(c3ccccc3)C(=O)[C@@H]12` [D18-major, [II-VDINNNK ]G], the “fold improved binding affinity compared to disulfide-bridged peptide 24” value is reported as 7 fold.

Same assay, conditions: ratio of SPR KD, hSPSB2, versus 25

In the case of `CC[C@H](C)[C@@H]1NC(=O)[C@H](CC(=O)O)NC(=O)[C@H](C(C)C)N(C)C(=O)[C@@H]2N[C@H](c3ccc(cc3)C(=O)NCCCC[C@@H](C(=O)NCC(N)=O)NC(=O)[C@H](CC(N)=O)NC(=O)[C@H](CC(N)=O)NC(=O)[C@H](CC(N)=O)NC1=O)[C@@H]1C(=O)N(c3ccccc3)C(=O)[C@@H]12` [D18-major, [II-VDINNNK ]G], the “fold improved binding affinity compared to cyclic peptide 25” value is reported as 36 fold.

Same assay, conditions: ratio of SPR KD, hSPSB2, versus 27

`CC[C@H](C)[C@@H]1NC(=O)[C@H](CC(=O)O)NC(=O)[C@H](C(C)C)N(C)C(=O)[C@@H]2N[C@H](c3ccc(cc3)C(=O)NCCCC[C@@H](C(=O)NCC(N)=O)NC(=O)[C@H](CC(N)=O)NC(=O)[C@H](CC(N)=O)NC(=O)[C@H](CC(N)=O)NC1=O)[C@@H]1C(=O)N(c3ccccc3)C(=O)[C@@H]12` [D18-major, [II-VDINNNK ]G] was tested, and the “fold better affinity than 27” value was 40 fold.

Target: T2, SPSB2
Experiment: SPR
Details: not given

VDINNNKG (macrocycle via N-phenyl fused di-pyrrolidine (II) minor diastereomer, N-Me-Val) [PepNat D18-minor] and B1 are within 1.5-fold of each other in Kd: 139 nM for the first, 175 nM for the second.

Going from B2 to B3, the Kd falls from 309 nM to 10 nM (31-fold).

Going from VDINNNKG (macrocycle via N-phenyl fused di-pyrrolidine (II), N-Me-Val) [PepNat D18-major] to Ac-DINNN [iNOS peptide 23], the Kd rises from 2.2 nM to 237 nM (110-fold). The first binds more tightly here.

Going from B4 to B5, the Kd falls from 18 nM to 3.8 nM (4.7-fold). The second binds more tightly here.

Compared with B6, B7 is 5.8-fold lower in Kd: 87 nM for the first, 15 nM for the second.

Going from CVDINNNC (disulfide 1-8 (inferred)) [cyclic peptide 24] to B8, the Kd rises from 16 nM to 231 nM (14-fold).

Going from Ac-KEEKDINNNVKKT [iNOS peptide 22] to B9, the Kd rises from 7.1 nM to 78 nM (11-fold). The first binds more tightly here.
